Laboratory results published in publication PMC5465077.

Biological target: Her2 on SKBR3 cells (human (endogenous in SKBR3)) (UniProt P04626)
Experiment: flow cytometry on cells; 200,000 SKBR3 cells per sample incubated on ice for 60 min with serial dilutions of antibody or ADC in FACS buffer (DPBS, 1% BSA); detected with Alexa 647 goat anti-human IgG; mean fluorescence intensities fitted with a one-site specific binding equation

Trastuzumab^CF MMAF (AB4285) LC-S7 (antibody)
Kd: 7.6 nM
